T1: Flag-tagged SOD2
T1 sequence: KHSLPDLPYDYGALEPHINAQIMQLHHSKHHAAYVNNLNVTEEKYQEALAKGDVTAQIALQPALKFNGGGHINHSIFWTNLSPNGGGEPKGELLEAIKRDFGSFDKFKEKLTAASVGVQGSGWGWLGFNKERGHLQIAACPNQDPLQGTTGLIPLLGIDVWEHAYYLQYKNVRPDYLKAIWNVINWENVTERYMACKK

T2: Long-chain acyl CoA dehydrogenase (endogenous, mouse liver), P51174
T2 chain: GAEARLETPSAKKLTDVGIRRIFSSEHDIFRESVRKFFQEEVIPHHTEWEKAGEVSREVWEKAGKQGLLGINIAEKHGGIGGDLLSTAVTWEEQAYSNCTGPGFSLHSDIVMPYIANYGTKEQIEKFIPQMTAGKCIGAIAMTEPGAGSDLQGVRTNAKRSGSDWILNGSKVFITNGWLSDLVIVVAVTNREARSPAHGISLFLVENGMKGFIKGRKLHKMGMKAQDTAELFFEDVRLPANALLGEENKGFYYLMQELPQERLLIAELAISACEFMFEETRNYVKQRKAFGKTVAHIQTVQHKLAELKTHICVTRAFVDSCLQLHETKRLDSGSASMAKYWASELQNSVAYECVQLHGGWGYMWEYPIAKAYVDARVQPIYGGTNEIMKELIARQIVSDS

B1: SIRT3 (endogenous, mouse tissue) (protein)
chain: PISLCVGASGGFGGGGSSEKKFSLQDVAELLRTRACSRVVVMVGAGISTPSGIPDFRSPGSGLYSNLQQYDIPYPEAIFELGFFFHNPKPFFMLAKELYPGHYRPNVTHYFLRLLHDKELLLRLYTQNIDGLERASGIPASKLVEAHGTFVTATCTVCRRSFPGEDIWADVMADRVPRCPVCTGVVKPDIVFFGEQLPARFLLHMADFALADLLLILGTSLEVEPFASLSEAVQKSVPRLLINRDLVGPFVLSPRRKDVVQLGDVVHGVERLVDLLGWTQELLDLMQRERGKLDGQDR

Assays:
Flag-tagged SOD2 = system: T1, Flag-tagged SOD2
[1] = system: Flag-tagged SOD2 mutant of K130
[2] = system: Flag-tagged SOD2 mutant of K122
[3] = system: Flag-tagged SOD2 mutant of K68
[4] = target: T2, Long-chain acyl CoA dehydrogenase …

Row | Molecule | acetylation levels for SOD2 after immunoprecipitation, western blotting with anti-acetyllysine antibody (Flag-tagged SOD2) | enzymatic activity of immunopurified SOD2 (superoxide conversion, colorimetric) (Flag-tagged SOD2) | acetylation status of immunopurified SOD2 mutant [1] | acetylation levels of immunopurified SOD2 mutant (Flag-tagged SOD2 K89R) | acetylation status of immunopurified SOD2 mutant [2] | acetylation levels of immunopurified SOD2 mutant (Flag-tagged SOD2 K53/89R) | enzymatic activity of immunopurified SOD2 K53/89R (superoxide conversion, colorimetric) (Flag-tagged SOD2 K53/89R) | acetylation levels of immunopurified SOD2 mutant (Flag-tagged SOD2 K53R) | acetylation status of immunopurified SOD2 mutant [3] | enzymatic activity of LCAD in liver lysates (oxidation of palmitoyl-CoA) [4]
1 | SIRT3-H248Y | SIRT3, but not SIRT3-H248Y, deacetylated SOD2 | overexpression of SIRT3-H248Y had the opposite effect | – | – | – | – | – | – | – | –
2 | SIRT3 (co-transfected expression construct) | SIRT3, but not SIRT3-H248Y, deacetylated SOD2 | Overexpression of WT SIRT3 decreased the acetylation of SOD2 (FIG. 3D, E, G) and significantly increased its enzymatic activity | SIRT3 co-expression reduced acetylation levels of these three SOD2 mutants | SIRT3 co-expression further decreased acetylation levels of K53R and K89R, but not K53/89R | SIRT3 co-expression reduced acetylation levels of these three SOD2 mutants | SIRT3 co-expression further decreased acetylation levels of K53R and K89R, but not K53/89R | SIRT3 did not further increase its enzymatic activity | SIRT3 co-expression further decreased acetylation levels of K53R and K89R, but not K53/89R | SIRT3 co-expression reduced acetylation levels of these three SOD2 mutants | –
3 | B1 | – | – | – | – | – | – | – | – | – | we observed a 50% increase in enzymatic activity of LCAD in WT but not SIRT3 KO mice during CR
